Data from patent publication US20240424127A1 (BRIGHT PEAK THERAPEUTICS, published 2024).
Substitutions are numbered along the chain they refer to. Names and notes keep the numbering of the source. Read-outs that look alike come from different tables or passages of the source. Values belong to the binder of their own block, whether it stands above or below them. Bridges are numbered along the chain shown (N, C = ends). [ ]: non-standard residue; d: D form. glutaryl‑PEG9‑azide = glutaryl-PEG9-azide group on the N-terminal amine; L6P = lysine side chain carrying PEG6-NH2 (diglycolyl-PEG-amine); hSer = N[C@@H](CCO)C(=O)O; Nle = CCCC[C@H](N)C(=O)O

Experiments:
[1] = biological target: T1, Recombinant Human IL-7R alpha/CD127 Fc Avi-tag Protein, CF (R&D Systems #AVI10317-050) (human, UniProt P16871 21-239); assay: BLI (Octet R8); CD127-Fc-Avi loaded on SAX2 sensor, IL-7 polypeptide as analyte
T1 construct: Bought construct; It was loaded on streptavidin (SAX/SAX2) biosensors; not shown: Fc and Avi-tag of a bought protein
T1 sequence (looked up): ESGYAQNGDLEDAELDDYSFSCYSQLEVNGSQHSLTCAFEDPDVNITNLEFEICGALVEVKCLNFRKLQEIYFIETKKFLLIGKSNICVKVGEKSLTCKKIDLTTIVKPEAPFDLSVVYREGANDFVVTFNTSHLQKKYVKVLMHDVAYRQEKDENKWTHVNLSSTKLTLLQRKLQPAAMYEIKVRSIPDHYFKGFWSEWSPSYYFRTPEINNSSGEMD

[2] = biological target: T2, IL-7 receptor (IL-7Rα/γc heterodimer) on primary human T cells (human, UniProt P16871 21-459; P31785 23-369); assay: cell-based or functional assay
T2 sequence (looked up) 1: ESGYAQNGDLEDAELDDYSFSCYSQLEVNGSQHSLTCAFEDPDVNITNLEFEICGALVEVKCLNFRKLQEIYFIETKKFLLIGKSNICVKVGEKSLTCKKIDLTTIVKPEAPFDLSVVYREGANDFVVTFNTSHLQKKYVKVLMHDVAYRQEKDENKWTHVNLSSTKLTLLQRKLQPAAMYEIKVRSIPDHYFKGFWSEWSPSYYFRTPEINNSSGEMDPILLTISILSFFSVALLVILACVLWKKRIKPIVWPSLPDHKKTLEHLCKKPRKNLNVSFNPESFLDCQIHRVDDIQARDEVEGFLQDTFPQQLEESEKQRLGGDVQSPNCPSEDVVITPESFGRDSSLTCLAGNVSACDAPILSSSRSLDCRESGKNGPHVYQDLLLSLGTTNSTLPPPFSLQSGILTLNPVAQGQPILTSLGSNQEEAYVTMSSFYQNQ
T2 sequence (looked up) 2: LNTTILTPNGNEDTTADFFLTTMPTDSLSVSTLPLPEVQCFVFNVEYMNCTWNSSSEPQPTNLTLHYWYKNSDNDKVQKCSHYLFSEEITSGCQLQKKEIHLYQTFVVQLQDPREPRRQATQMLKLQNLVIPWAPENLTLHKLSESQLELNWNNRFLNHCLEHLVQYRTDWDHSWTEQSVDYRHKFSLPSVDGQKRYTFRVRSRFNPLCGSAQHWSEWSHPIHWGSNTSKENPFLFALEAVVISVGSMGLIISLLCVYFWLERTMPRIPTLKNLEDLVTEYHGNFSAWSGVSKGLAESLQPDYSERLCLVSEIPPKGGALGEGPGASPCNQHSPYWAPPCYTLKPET

[3] = biological target: T1, Recombinant Human IL-7R alpha/CD127 Fc …; assay: BLI (Octet R8); CD127-Fc-Avi loaded on SAX2 sensor, IL-7 polypeptide as analyte; remark: listed apart in the source
[4] = biological target: T1, Recombinant Human IL-7R alpha/CD127 Fc …; assay: as above; remark: listed apart in the source
[5] = biological target: T1, Recombinant Human IL-7R alpha/CD127 Fc …; assay: as above; remark: listed apart in the source
[6] = biological target: T1, Recombinant Human IL-7R alpha/CD127 Fc …; assay: as above; remark: listed apart in the source
[7] = biological target: T1, Recombinant Human IL-7R alpha/CD127 Fc …; assay: as above; remark: listed apart in the source
[8] = biological target: T1, Recombinant Human IL-7R alpha/CD127 Fc …; assay: as above; remark: listed apart in the source

- Kd [1]: 1.28 nM
- koff [1]: 0.00698 s⁻¹
- kon [1]: 5.47e+06 M⁻¹ s⁻¹
- EC50 pSTAT5, CD4 Memory [2]: 1 pM
- EC50 pSTAT5, CD4 Naive [2]: 1 pM
- EC50 pSTAT5, CD4 Treg [2]: 32 pM
- EC50 pSTAT5, CD8 Memory [2]: 6 pM
- EC50 pSTAT5, CD8 Naive [2]: 2 pM
B1: CMP-035, recombinant human native IL-7 with His-tag (ligand)
chain: DCDIEGKDGKQYESVLMVSIDQLLDSMKEIGSNCLNNEFNFFKRHICDANKEGMFLFRAARKLRQFLKMNSTGDFDLHLLKVSEGTTILLNCTGQVKGRKPAALGEAQPTKSLEENKSLKEQKKLNDLCFLKRLLQEIKTCWNKILMGTKEHVDHHHHHH
notes: also called WT IL-7 His; recombinant IL-7 (WT)

- EC50 pSTAT5, CD4 Memory [2]: 1 pM
- EC50 pSTAT5, CD4 Naive [2]: 1 pM
- EC50 pSTAT5, CD4 Treg [2]: 10 pM
- EC50 pSTAT5, CD8 Memory [2]: 2 pM
- EC50 pSTAT5, CD8 Naive [2]: 1 pM
B2: CMP-117, recombinant IL-7 Q11F with His-tag (ligand)
chain: B1 chain with Q11F

- Kd [3]: 16.5 nM
- koff [3]: 0.0318 s⁻¹
- kon [3]: 1.92e+06 M⁻¹ s⁻¹
- koff [4]: 0.0353 s⁻¹
- kon [4]: 1.41e+06 M⁻¹ s⁻¹
- EC50 pSTAT5, CD4 Memory [2]: 11.2 nM
- EC50 pSTAT5, CD4 Naive [2]: 11.6 nM
- EC50 pSTAT5, CD4 Treg [2]: 82.3 nM
- EC50 pSTAT5, CD8 Memory [2]: 16.2 nM
- EC50 pSTAT5, CD8 Naive [2]: 12.3 nM
B3: CMP-111, synthetic IL-7 K81(L6P), G85N of SEQ ID NO: 8 with glutaryl-PEG9-azide at the N-terminus (ligand)
chain: {glutaryl‑PEG9‑azide}-DCDIEGKDGKQYESVL[Nle]VSIDQLLDS[Nle]KEIGSNCL[hSer]NEFNFFKRHICDANKEG[Nle]FLFRAARKLRQFLK[Nle]NSTGDF[hSer]LHLLK(L6P)VSENTTILLNCTGQVKGRKPAALGEAQPTKSL[hSer]ENKSLKEQKKLNDLCFLKRLLQEIKTCWNKIL[Nle]GTKEH-NH2
modifications: disulfide 34-129, 47-141, 2-92

- Kd [5]: 25.4 nM
- koff [5]: 0.00997 s⁻¹
- kon [5]: 393000 M⁻¹ s⁻¹
- EC50 pSTAT5, CD4 Memory [2]: 38.1 nM
- EC50 pSTAT5, CD4 Naive [2]: 18.9 nM
- EC50 pSTAT5, CD4 Treg [2]: 32.7 nM
- EC50 pSTAT5, CD8 Memory [2]: 37.4 nM
- EC50 pSTAT5, CD8 Naive [2]: 20.4 nM
B4: CMP-202, synthetic IL-7 variant of Example 2W (ligand)
chain: {glutaryl‑PEG9‑azide}-DSDIEGKDGKQYESVL[Nle]VSIDQLLDS[Nle]KEIGSNCL[hSer]NEFNFFKRHICDANKEG[Nle]FLFRAARKLRQFLK[Nle]NSTGDF[hSer]LHLLK(L6P)VSENTTILLNSTGQVKGRKPAALGEAQPTKSL[hSer]ENKSLKEQKKLNDLCFLKRLLQEIKTCWNKIL[Nle]GTKEH-NH2
modifications: disulfide 34-129, 47-141

- EC50 pSTAT5, CD4 Memory [2]: 5 pM
- EC50 pSTAT5, CD4 Naive [2]: 5 pM
- EC50 pSTAT5, CD4 Treg [2]: 15 pM
- EC50 pSTAT5, CD8 Memory [2]: 6 pM
- EC50 pSTAT5, CD8 Naive [2]: 6 pM
B5: CMP-036, synthetic IL-7 of SEQ ID NO: 3 (no N-terminal conjugation handle) (ligand)
chain: DCDIEGKDGKQYESVL[Nle]VSIDQLLDS[Nle]KEIGSNCL[hSer]NEFNFFKRHICDANKEG[Nle]FLFRAARKLRQFLK[Nle]NSTGDF[hSer]LHLLKVSEGTTILLNCTGQVKGRKPAALGEAQPTKSL[hSer]ENKSLKEQKKLNDLCFLKRLLQEIKTCWNKIL[Nle]GTKEH
modifications: ends and bridges not checked

- EC50 pSTAT5, CD4 Memory [2]: 40 pM
- EC50 pSTAT5, CD4 Naive [2]: 40 pM
- EC50 pSTAT5, CD4 Treg [2]: 0.18 nM
- EC50 pSTAT5, CD8 Memory [2]: 60 pM
- EC50 pSTAT5, CD8 Naive [2]: 50 pM
B6: CMP-113, synthetic IL-7 C2A, C92A of SEQ ID NO: 10 with glutaryl-PEG9-azide at the N-terminus (ligand)
chain: {glutaryl‑PEG9‑azide}-DADIEGKDGKQYESVL[Nle]VSIDQLLDS[Nle]KEIGSNCL[hSer]NEFNFFKRHICDANKEG[Nle]FLFRAARKLRQFLK[Nle]NSTGDF[hSer]LHLLKVSEGTTILLNATGQVKGRKPAALGEAQPTKSL[hSer]ENKSLKEQKKLNDLCFLKRLLQEIKTCWNKIL[Nle]GTKEH
modifications: ends and bridges not checked

- EC50 pSTAT5, CD4 Memory [2]: 0.4 pM
- EC50 pSTAT5, CD4 Naive [2]: 1 pM
- EC50 pSTAT5, CD4 Treg [2]: 1.2 nM
- EC50 pSTAT5, CD8 Memory [2]: 34 pM
- EC50 pSTAT5, CD8 Naive [2]: 6 pM
- Kd [6]: 22.5 nM
- koff [6]: 0.0259 s⁻¹
- kon [6]: 1.15e+06 M⁻¹ s⁻¹
B7: CMP-107, synthetic IL-7 V15W of SEQ ID NO: 5 with glutaryl-PEG9-azide at the N-terminus (ligand)
chain: {glutaryl‑PEG9‑azide}-DCDIEGKDGKQYESWL[Nle]VSIDQLLDS[Nle]KEIGSNCL[hSer]NEFNFFKRHICDANKEG[Nle]FLFRAARKLRQFLK[Nle]NSTGDF[hSer]LHLLKVSEGTTILLNCTGQVKGRKPAALGEAQPTKSL[hSer]ENKSLKEQKKLNDLCFLKRLLQEIKTCWNKIL[Nle]GTKEH-NH2
modifications: disulfide 34-129, 47-141, 2-92
notes: also called synthetic IL-7 with V15W

- EC50 pSTAT5, CD4 Memory [2]: 0.7 nM
- EC50 pSTAT5, CD4 Naive [2]: 0.8 nM
- EC50 pSTAT5, CD4 Treg [2]: 4.45 nM
- EC50 pSTAT5, CD8 Memory [2]: 1.7 nM
- EC50 pSTAT5, CD8 Naive [2]: 1.2 nM
- Kd [7]: 19.2 nM
- koff [7]: 0.00996 s⁻¹
- kon [7]: 518000 M⁻¹ s⁻¹
B8: CMP-201, synthetic IL-7 variant of Example 2V (ligand)
chain: {glutaryl‑PEG9‑azide}-DSDIEGKDGKQYESVL[Nle]VSIDQLLDS[Nle]KEIGSNCL[hSer]NEFNFFKRHICDANKEG[Nle]FLFRAARKLRQFLK[Nle]NSTGDF[hSer]LHLLKVSENTTILLNSTGQVKGRKPAALGEAQPTKSL[hSer]ENKSLKEQKKLNDLCFLKRLLQEIKTCWNKIL[Nle]GTKEH-NH2
modifications: disulfide 34-129, 47-141

- EC50 pSTAT5, CD4 Memory [2]: 30 pM
- EC50 pSTAT5, CD4 Naive [2]: 20 pM
- EC50 pSTAT5, CD4 Treg [2]: 0.14 nM
- EC50 pSTAT5, CD8 Memory [2]: 40 pM
- EC50 pSTAT5, CD8 Naive [2]: 30 pM
- Kd [8]: 7.18 nM
- koff [8]: 0.00879 s⁻¹
- kon [8]: 1.22e+06 M⁻¹ s⁻¹
B9: CMP-200, IL-7 syntein missing C2-C92 disulphide bond, N-terminus with glutaric acid and azido-PEG (ligand)
chain: {glutaryl‑PEG9‑azide}-DSDIEGKDGKQYESVL[Nle]VSIDQLLDS[Nle]KEIGSNCL[hSer]NEFNFFKRHICDANKEG[Nle]FLFRAARKLRQFLK[Nle]NSTGDF[hSer]LHLLKVSEGTTILLNSTGQVKGRKPAALGEAQPTKSL[hSer]ENKSLKEQKKLNDLCFLKRLLQEIKTCWNKIL[Nle]GTKEH-NH2
modifications: disulfide 34-129, 47-141
notes: also called CMP-200-001

- EC50 pSTAT5, CD4 Memory [2]: 4 pM
- EC50 pSTAT5, CD4 Naive [2]: 2 pM
- EC50 pSTAT5, CD4 Treg [2]: 10 pM
- EC50 pSTAT5, CD8 Memory [2]: 4 pM
- EC50 pSTAT5, CD8 Naive [2]: 5 pM
B10: CMP-114, CMP-108 conjugated to 30 kDa DBCO PEG at the N-terminus (ligand)
chain: DCDIEGKDGKQYESVL[Nle]VSIDQLLDS[Nle]KEIGSNCL[hSer]NEFNFFKRHICDANKEG[Nle]FLFRAARKLRQFLK[Nle]NSTGDF[hSer]LHLLKVSEGTTILLNCTGQVKGRKPAALGEAQPTKSL[hSer]ENKSLKEQKKLNDLCFLKRLLQEIKTCWNKIL[Nle]GTKEH-NH2
modifications: disulfide 34-129, 47-141, 2-92; not fully specified (N-terminus); also: N-terminal azide conjugated to 30 kDa DBCO-PEG
